Laboratory results from patent US20110263454A1, “Methods of Identifying Functional Characteristics of Promoters, Transcription Modifying Proteins and Transcription Modulating Agents” (Salk Institute for Biological Studies, priority 2008, published 2011).

B1: CTF2: COUP-TF2 (NR2F2), cDNA driver (protein, UniProt P24468 1-414, looked up)
COUP transcription factor 2: MAMVVSTWRDPQDEVPGSQGSQASQAPPVPGPPPGAPHTPQTPGQGGPASTPAQTAAGGQGGPGGPGSDKQQQQQHIECVVCGDKSSGKHYGQFTCEGCKSFFKRSVRRNLSYTCRANRNCPIDQHHRNQCQYCRLKKCLKVGMRREAVQRGRMPPTQPTHGQFALTNGDPLNCHSYLSGYISLLLRAEPYPTSRFGSQCMQPNNIMGIENICELAARMLFSAVEWARNIPFFPDLQITDQVALLRLTWSELFVLNAAQCSMPLHVAPLLAAAGLHASPMSADRVVAFMDHIRIFQEQVEKLKALHVDSAEYSCLKAIVLFTSDACGLSDVAHVESLQEKSQCALEEYVRSQYPNQPTRFGKLLLRLPSLRTVSSSVIEQLFFVRLVGKTPIETLIRDMLLSGSSFNWPYMAIQ
B2: ERR2: Estrogen Related Receptor β (NR3B2, ERRb), cDNA driver (protein, UniProt O95718 1-433, looked up)
Steroid hormone receptor ERR2: MSSDDRHLGSSCGSFIKTEPSSPSSGIDALSHHSPSGSSDASGGFGLALGTHANGLDSPPMFAGAGLGGTPCRKSYEDCASGIMEDSAIKCEYMLNAIPKRLCLVCGDIASGYHYGVASCEACKAFFKRTIQGNIEYSCPATNECEITKRRRKSCQACRFMKCLKVGMLKEGVRLDRVRGGRQKYKRRLDSESSPYLSLQISPPAKKPLTKIVSYLLVAEPDKLYAMPPPGMPEGDIKALTTLCDLADRELVVIIGWAKHIPGFSSLSLGDQMSLLQSAWMEILILGIVYRSLPYDDKLVYAEDYIMDEEHSRLAGLLELYRAILQLVRRYKKLKVEKEEFVTLKALALANSDSMYIEDLEAVQKLQDLLHEALQDYELSQRHEEPWRTGKLLLTLPLLRQTAAKAVQHFYSVKLQGKVPMHKLFLEMLEAKV
B3: ERR3: Estrogen Related Receptor γ (NR3B3, ERRg), cDNA driver (protein, UniProt P62508 1-458, looked up)
Estrogen-related receptor …: MDSVELCLPESFSLHYEEELLCRMSNKDRHIDSSCSSFIKTEPSSPASLTDSVNHHSPGGSSDASGSYSSTMNGHQNGLDSPPLYPSAPILGGSGPVRKLYDDCSSTIVEDPQTKCEYMLNSMPKRLCLVCGDIASGYHYGVASCEACKAFFKRTIQGNIEYSCPATNECEITKRRRKSCQACRFMKCLKVGMLKEGVRLDRVRGGRQKYKRRIDAENSPYLNPQLVQPAKKPYNKIVSHLLVAEPEKIYAMPDPTVPDSDIKALTTLCDLADRELVVIIGWAKHIPGFSTLSLADQMSLLQSAWMEILILGVVYRSLSFEDELVYADDYIMDEDQSKLAGLLDLNNAILQLVKKYKSMKLEKEEFVTLKAIALANSDSMHIEDVEAVQKLQDVLHEALQDYEAGQHMEDPRRAGKMLMTLPLLRQTSTKAVQHFYNIKLEGKVPMHKLFLEMLEAKV
B4: CTF3: COUP-TF3 (NR2F6), cDNA driver (protein, UniProt P10588 1-404, looked up)
Nuclear receptor subfamily 2 …: MAMVTGGWGGPGGDTNGVDKAGGYPRAAEDDSASPPGAASDAEPGDEERPGLQVDCVVCGDKSSGKHYGVFTCEGCKSFFKRSIRRNLSYTCRSNRDCQIDQHHRNQCQYCRLKKCFRVGMRKEAVQRGRIPHSLPGAVAASSGSPPGSALAAVASGGDLFPGQPVSELIAQLLRAEPYPAAAGRFGAGGGAAGAVLGIDNVCELAARLLFSTVEWARHAPFFPELPVADQVALLRLSWSELFVLNAAQAALPLHTAPLLAAAGLHAAPMAAERAVAFMDQVRAFQEQVDKLGRLQVDSAEYGCLKAIALFTPDACGLSDPAHVESLQEKAQVALTEYVRAQYPSQPQRFGRLLLRLPALRAVPASLISQLFFMRLVGKTPIETLIRDMLLSGSTFNWPYGSGQ
B5: CTF1: COUP-TF1 (NR2F1), cDNA driver (protein, UniProt P10589 1-423, looked up)
COUP transcription factor 1: MAMVVSSWRDPQDDVAGGNPGGPNPAAQAARGGGGGAGEQQQQAGSGAPHTPQTPGQPGAPATPGTAGDKGQGPPGSGQSQQHIECVVCGDKSSGKHYGQFTCEGCKSFFKRSVRRNLTYTCRANRNCPIDQHHRNQCQYCRLKKCLKVGMRREAVQRGRMPPTQPNPGQYALTNGDPLNGHCYLSGYISLLLRAEPYPTSRYGSQCMQPNNIMGIENICELAARLLFSAVEWARNIPFFPDLQITDQVSLLRLTWSELFVLNAAQCSMPLHVAPLLAAAGLHASPMSADRVVAFMDHIRIFQEQVEKLKALHVDSAEYSCLKAIVLFTSDACGLSDAAHIESLQEKSQCALEEYVRSQYPNQPSRFGKLLLRLPSLRTVSSSVIEQLFFVRLVGKTPIETLIRDMLLSGSSFNWPYMSIQCS

Experiments:
[1] = system: mPer1 promoter; assay: NHR-promoter luciferase screen, mPer1 promoter; format: cell-based, mouse; details: for Luc. act., normalized to lacZ / Normalized Luc. act., normalized to control: Per1 promoter reporter, co-transfected HR, with or without its ligand; for Normalized Luc. act., normalized to control: relative to control; for luciferase activity normalized to lacZ activity and to a control, mPer1: mPer1 promoter-luciferase, CV-1 cells, NHR +/- ligand, control = 1.00
Method in brief: (§1)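 CV-1 cells were co-transfected with 50 ng NHR (homodimer or NHR/RXR heterodimer), 100 ng promoter-luciferase construct and 50 ng LacZ. Luciferase was normalized to LacZ and to a no-NHR/no-ligand control.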

[2] = system: mAdiponectin promoter; assay: NHR-promoter luciferase screen, mAdiponectin promoter; format: cell-based, mouse; details: for Luc. act., normalized to lacZ / Normalized Luc. act., normalized to control: Adiponectin, HR component without or with its ligand; for mAdiponectin promoter reporter activity: transcription factor +/- ligand, control = 1.00
Method in brief: as §1

[3] = system: mDio1 promoter; assay: NHR-promoter luciferase screen, mDio1 promoter; format: cell-based, mouse; details: for Luc. act., normalized to lacZ / Normalized Luc. act., normalized to control: Dio1, HR component without or with its ligand; for mDio1 promoter reporter activity: transcription factor +/- ligand, control = 1.00
Method in brief: as §1

[4] = system: Bmal1 promoter; assay: NHR-promoter luciferase screen, Bmal1 promoter; format: cell-based, mouse; details: for Luc. act., normalized to lacZ / Normalized Luc. act., normalized to control: Bmal1 promoter, HR component without or with ligand; for mBmal1 promoter reporter activity: transcription factor +/- ligand, control = 1.00
Method in brief: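 CV-1 cells co-transfected with 50 ng NHR (V5H6-tagged, pcDNA3.1; homodimer or RXR heterodimer), 100 ng Bmal1 promoter-luciferase and 50 ng LacZ. Luciferase was normalized to LacZ and to a no-NHR/ligand control.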

[5] = system: hMyoD promoter; assay: NHR-promoter luciferase screen, hMyoD promoter; format: cell-based, human; details: for Luc. act., normalized to lacZ / Normalized Luc. act., normalized to control: MyoD promoter reporter, co-transfected HR, without or with its ligand; for Normalized Luc. act., normalized to control: relative to control; for luciferase activity normalized to lacZ activity and to a control, hMyoD: hMyoD promoter-luciferase, CV-1 cells, NHR +/- ligand, control = 1.00
Method in brief: as §1

[6] = system: mAgrp promoter; assay: NHR-promoter luciferase screen, mAgrp promoter; format: cell-based, mouse; details: for Results of assays of transcription factor (+/- ligand) with mAgrp: Table 6d, luciferase activity relative to control (control = 1.00); for Luc. act., normalized to lacZ / Normalized Luc. act., normalized to control: mAgrp promoter, HR component with or without ligand; for Normalized Luc. act., normalized to control: relative to control
Method in brief: as §1

Row | Molecule | Luc. act., normalized to lacZ [1] | Normalized Luc. act., normalized to control [1] | luciferase activity normalized to lacZ activity and to a control, mPer1 [1] | Luc. act., normalized to lacZ [2] | Normalized Luc. act., normalized to control [2] | mAdiponectin promoter reporter activity [2] | Luc. act., normalized to lacZ [3] | Normalized Luc. act., normalized to control [3] | mDio1 promoter reporter activity [3] | Luc. act., normalized to lacZ [4] | Normalized Luc. act., normalized to control [4] | mBmal1 promoter reporter activity [4] | Luc. act., normalized to lacZ [5] | Normalized Luc. act., normalized to control [5] | luciferase activity normalized to lacZ activity and to a control, hMyoD [5] | Results of assays of transcription factor (+/- ligand) with mAgrp [6] | Luc. act., normalized to lacZ [6] | Normalized Luc. act., normalized to control [6] | luciferase/LacZ, mAgrp (selected results) ([6]; mAgrp promoter-luciferase, NHR +/- ligand, control = 1.0)
1 | B1 | 346.6 | 2.4 | 2.41 | 75.1 | 1.2 | 1.20 | 20.9 | 4.7 | 4.69 | 29.5 | 1.9 | 1.89 | 60.9 | 1.0 | 0.96 | 1.08 | 42.7 | 1.1 | 
2 | B2 | 328.2 | 2.3 | 2.28 | 55.3 | 0.9 | 0.88 | 13.6 | 3.1 | 3.05 | 10.6 | 0.7 | 0.68 | 164.8 | 2.6 | 2.60 | 1.64 | 65.0 | 1.6 | 1.6
3 | B3 | 226.8 | 1.6 | 1.58 | 69.7 | 1.1 | 1.11 | 5.9 | 1.3 | 1.32 | 9.5 | 0.6 | 0.61 | 129.6 | 2.0 | 2.05 | 2.12 | 84.0 | 2.1 | 
4 | B4 | 159.0 | 1.1 | 1.10 | 71.0 | 1.1 | 1.13 | 10.0 | 2.2 | 2.23 | 21.2 | 1.4 | 1.35 | 35.6 | 0.6 | 0.56 | 0.86 | 34.2 | 0.9 | 
5 | B5 | 283.8 | 2.0 | 1.97 | 118.7 | 1.9 | 1.89 | 17.3 | 3.9 | 3.89 | 26.1 | 1.7 | 1.67 | 44.8 | 0.7 | 0.71 | 0.71 | 28.2 | 0.7 | 
